Reference: patent US7485712
pKd: −log10 of the molar value.

Legend:
[1] = biological target: microtubules assembled from porcine brain PC-tubulin (not taxol-stabilised) (porcine) (UniProt P02550); experiment: cell-based or functional assay
[2] = biological target: taxol-stabilised microtubules (porcine brain tubulin) (porcine) (UniProt P02550); experiment: binding to taxol stabilized microtubules (30 µM tubulin dimers) after p110MARK phosphorylation
[3] = biological target: taxol-stabilised microtubules (porcine brain tubulin) (porcine) (UniProt P02550); experiment: binding to taxol stabilized microtubules (30 µM tubulin dimers), binding curve

MAP4, phosphorylated with NPK-110, sequence (P27546 630-1125): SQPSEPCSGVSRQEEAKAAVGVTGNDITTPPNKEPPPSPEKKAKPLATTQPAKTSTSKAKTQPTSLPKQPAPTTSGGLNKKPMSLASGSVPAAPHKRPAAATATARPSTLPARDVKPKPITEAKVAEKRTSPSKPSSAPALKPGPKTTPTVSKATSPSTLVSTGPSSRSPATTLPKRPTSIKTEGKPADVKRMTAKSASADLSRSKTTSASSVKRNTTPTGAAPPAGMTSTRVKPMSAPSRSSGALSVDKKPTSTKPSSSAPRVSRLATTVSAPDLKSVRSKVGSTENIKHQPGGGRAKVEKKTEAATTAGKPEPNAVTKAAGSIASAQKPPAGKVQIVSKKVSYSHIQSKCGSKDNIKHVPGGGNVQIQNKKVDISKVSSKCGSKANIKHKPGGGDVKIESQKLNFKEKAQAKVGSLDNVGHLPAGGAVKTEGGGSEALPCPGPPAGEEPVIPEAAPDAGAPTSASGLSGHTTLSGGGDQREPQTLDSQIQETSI

Row | mean length of microtubules, against the control without ATP (fold of control) [1] | pKd [2] | Substance | further results
1 | 0.5 |  | MAP2, phosphorylated with NPK-110 | 
2 |  | 5.15 | MAP2cA319, phosphorylated with p110MARK | 
3 |  | 5.15 | MAP2cA350, phosphorylated with p110MARK | 
4 | 0.5 |  | MAP4, phosphorylated with NPK-110 | 
5 |  |  | recombinant wild type MAP2c, non-phosphorylated | pKd [3]: 6.60; saturation [3]: 17 µM; stoichiometry (MAP2c molecules per tubulin dimer) [3]: 0.5
6 | 0.5 |  | recombinant wild type MAP2c, phosphorylated with p110MARK (NPK-110) | 
